We go through two molecules from US20240108746A1 (Molecular Partners, published 2024).

Numbering of substitutions follows the chain as printed.

Assay [1] addresses T1, Biotinylated CD3-specific binding domain SEQ ID NO: 14 (biotinylated (site not stated)).
T1 construct: Ligand on the neutravidin (NLC) SPR chip
T1 chain: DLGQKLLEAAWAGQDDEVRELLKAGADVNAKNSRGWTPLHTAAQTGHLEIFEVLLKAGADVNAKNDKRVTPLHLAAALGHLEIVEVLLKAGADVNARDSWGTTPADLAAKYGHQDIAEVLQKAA
The assay can be described thus: calculated from SPR koff (ln2/koff). On the procedure:
(§1) Further SPR data were generated for Binders #1 to #9 (as listed in Example 1 above), binding to biotinylated CD3-specific binding domains having SEQ ID NOs: 13 and 14, respectively, on the chip. […] The blocking half-life (T_{1/2}) was then calculated.

Assay [2] concerns the target T2, Biotinylated CD3-specific binding domain SEQ ID NO: 13 (biotinylated (site not stated)).
T2 construct: Ligand on the neutravidin (NLC) SPR chip; The same domain is the CD3-specific domain of TCE #1
T2 chain: T1 chain with N65D, R68G, R97Q, Q114E
The assay is described as follows: calculated from SPR koff (ln2/koff). As to the method:
as §1

Assay [3] concerns the target T1, Biotinylated CD3-specific binding …. The assay is described as follows: SPR (ProteOn XPR36), 33 C, multi-trace; biotinylated ligand on chip, binder as analyte. On the procedure: as §1
In assay [4] the target is T2, Biotinylated CD3-specific binding …. The assay is described as above. As to the method:
as §1

Assay [5] addresses T3, TCE #2.
T3 construct: also called α-HSA×α-CD123×α-CD33×α-CD3 T-cell engager; TCE (with a half-life extending moiety)
T3 chain: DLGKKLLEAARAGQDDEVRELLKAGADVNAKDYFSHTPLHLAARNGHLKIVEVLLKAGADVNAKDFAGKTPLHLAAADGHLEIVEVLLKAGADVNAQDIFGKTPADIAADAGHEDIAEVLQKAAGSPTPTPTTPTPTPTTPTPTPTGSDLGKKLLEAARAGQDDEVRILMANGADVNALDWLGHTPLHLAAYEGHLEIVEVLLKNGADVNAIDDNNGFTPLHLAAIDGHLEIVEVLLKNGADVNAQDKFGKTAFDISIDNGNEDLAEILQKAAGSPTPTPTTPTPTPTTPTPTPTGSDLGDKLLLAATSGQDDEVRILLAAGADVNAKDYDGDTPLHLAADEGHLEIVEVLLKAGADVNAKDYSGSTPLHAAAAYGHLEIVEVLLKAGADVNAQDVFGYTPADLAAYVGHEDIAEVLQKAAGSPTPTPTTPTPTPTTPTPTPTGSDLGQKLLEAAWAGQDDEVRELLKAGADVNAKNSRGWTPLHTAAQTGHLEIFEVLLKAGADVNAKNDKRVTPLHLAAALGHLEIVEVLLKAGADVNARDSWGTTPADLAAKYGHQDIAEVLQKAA
The assay is described as follows: not stated (affinity to the CD3 effector moiety of TCE #2).

The target of assay [6] is T1, Biotinylated CD3-specific binding …. The assay is described as follows: SPR (comparable assays).
The target of assay [7] is T2, Biotinylated CD3-specific binding …. The assay can be described thus: SPR (comparable assays).
Assay [8] concerns the target T3, TCE #2. The assay is described as follows: not stated (affinity to the CD3 binding domain of TCE #2); Binder #10, 1 pM or lower.

B1: Binder #1 (designed binder)
chain: MRGSHHHHHHGSDLGKKLLQAARAGQLDEVRELLKAGADVNAKDFKGLTPLHLAAAHGHLEIVEVLLKAGADVNAKDVYGWTPLHIAAASGHLEIVEVLLKAGADVNAKDWLGITPLHLAASHGHLEIVEVLLKAGADVNAQDKSGKTPADLAARAGHQDIAEVLQKAA
notes: expressed in E. coli and purified by its His-tag
Regarding B1, the results for the “Blocking T1/2” value in assay [1] and in assay [2] were 7.1 h and 3.1 h, respectively. The Kd in assay [3] is 0.034 nM; in assay [4] it was 0.04 nM; with TCE #2 [5], about 0.04 nM. The koff in assay [3] was determined as 2.7e-05 s⁻¹; in assay [4], 6.2e-05 s⁻¹. The on-rate (kon) in assay [3] turned out to be 790000 M⁻¹ s⁻¹; in assay [4], 1.54e+06 M⁻¹ s⁻¹.

B2: Binder #10 (designed binder)
chain: MRGSHHHHHHGSDLGKKLLQAARAGQLDEVRELLKAGADVNAKDHYGWTPLHLAASEGHLEIVEVLLKAGADVNAKDWIGWTPLHLAASFGHLEIVEVLLKAGADVNAKDVSGKTPLHIAARQGHLEIVEVLLKAGADVNAQDKSGKTPADLAARAGHQDIAEVLQKAA
Take B2: the binding result in assay [6] and in assay [7] was “binds” each time. This molecule also gave a Kd in the assay with TCE #2 [8] of at most 0.001 nM.

A word on the Kd: it is the equilibrium constant for the complex coming apart. One may read the koff as the rate constant with which the complex falls apart. Low readings indicate slow dissociation, high ones fast dissociation. In general, kon refers to the rate constant with which the complex forms.
